From US20250263482A1 (SHIJIAZHUANG YILING PHARMACEUTICAL, published 2025) come the findings set out here.

The target of the experiment is T1, human CLDN18.2 expressed on cells (human).
T1 construct: Tight junction membrane protein; also called huCLDN18.2
The experiment can be described thus: flow cytometry (geometric mean) on CLDN18.2-expressing 293T cells, Alexa Fluor 647 anti-human IgG Fc secondary. How it is done: CLDN18.2-expressing 293T cells and CLDN18.1-expressing 293T cells at a density of 2×10⁶ cells/ml in FACS buffer ([…]) were mixed with a dilution series ([…] in FACS buffer) of the chimeric antibodies, the reference antibody, or a IgG negative control (50 μL) in a 96-well V-bottom plate and incubated for 30 min on ice. After a wash with 200 μL/well FACS buffer, cells were resuspended in 30 μL/well secondary antibody Alexa Fluor® 647 AffiniPure Goat Anti-Human IgG, […] specific (Jackson, Cat. #109-605-098) and incubated for 20 min on ice. After three washes with 200 μL/well FACS buffer, cells were resuspended with 150 μl/well FACS buffer and subjected to FACS using BD LSR II Flow Cytometer (HTS). Geometric mean was used for data analysis and plots were made using Prism GraphPad.
(A flow cytometer gives signals particle by particle.)

B1: YL-G1-19-01 (antibody, human IgG1, kappa, V domains shown)
VH: QVQLQQSGAELVRPGTSVKVSCKASGYAFTNYLIEWVKQRPGQGLEWIGVINPGSGGTNYNEKFKGKATLTADKSSNTAYMQLSSLTSEDSAVYFCARVYYGNSFGYWGQGTLVTVSA
VL: DIVMTQSPSSLTVTAGEKVTMSCKSSQSLLNSGNQKNYLTWYQQKPGQPPKLLIYWASTRESGVPDRFTGSGSGTDFTLTISSVQAEDLAVYYCQNEYFYPFTFGSGTKLEIKR
notes: also called 1st generation chimeric antibody
Broadly, the EC50 (read off the curve) is the concentration at which the effect is half-maximal. A higher EC50 (read off the curve) goes with weaker potency. Regarding B1, the “EC50 (read off the curve)” value is about 0.8 µg/mL.

B2: YL-G1-19-02 (antibody, human IgG1, kappa)
heavy: not shown
light: DIVMTQSPSSLTVTAGEKVTMSCKSSQSLLNSGNQKNYLTWYQQRPGQPPKLLIYWASTRESGVPVRFTGSGSGTDFTLTISSVQAEDLAVYYCQNAYIYPLTFGTGTKLELKRTVAAPSVFIFPPSDEQLKSGTASVVCLLNNFYPREAKVQWKVDNALQSGNSQESVTEQDSKDSTYSLSSTLTLSKADYEKHKVYACEVTHQGLSSPVTKSFNRGEC
notes: also called YL-G1-02; YL-G-19-02
As for B2, the “EC50 (read off the curve)” value is about 0.6 µg/mL.
